Results: patent US20060246067A1

Each substance was assayed against T cell Receptor (TcR) on human peripheral blood T lymphocytes (assay: cell-based or functional assay).
For SMEZ-2 Y18A, the P50% (human PBL proliferation, 3H thymidine incorporation) was > 10 ng/mL and the Reduction (fold, against SMEZ-2 wild type) was > 100000 fold. Work on SMEZ-2 D42C yielded a P50% (human PBL proliferation, 3H thymidine incorporation) of 10 ng/mL and a Reduction (fold, against SMEZ-2 wild type) of 10000 fold. For SMEZ-2 W75L, the P50% (human PBL proliferation, 3H thymidine incorporation) was > 10 ng/mL and the Reduction (fold, against SMEZ-2 wild type) was > 100000 fold. With SMEZ-2 W75L.D42C.K182Q.Y18A. (M2) the P50% (human PBL proliferation, 3H thymidine incorporation) was > 10 ng/mL and the Reduction (fold, against SMEZ-2 wild type) was > 100000 fold. For SMEZ-2 W75L.D42C.K182Q (M1), the P50% (human PBL proliferation, 3H thymidine incorporation) was > 10 ng/mL and the Reduction (fold, against SMEZ-2 wild type) was > 100000 fold.
